Measurements taken from the DeepSol protein solubility set.

assay: soluble on expression in E. coli; label from the status in PepcDB or PDB records

| Sequence | soluble on expression in E. coli |
| --- | --- |
| PKVSVIMTSYNKSDYVAKSISSILSQTFSDFELFIMDDNSNEETLNVIRPFLNDNRVRFYQSDISGVKERTEKTRYAALINQAIEMAEGEYITYATDDNIYMPDRLLKMVRELDTHPEKAVIYSASKTYHLNENRDIVKETVRPAAQVTWNAPCAIDHCSVMHRYSVLEKVKEKFGSYWDESPAFYRIGDARFFWRVNHFYPFYPLDEELDLNYITDQSIHFQLFELEKNEFVRNLPPQRNCRELRESLKKLGMG | soluble |
| PLENQELTPLFGQPDWFLGILPSQAGNLKVLDTARWVMPERYRDDYRDGLKYVISVQGYEWGLAVHQVSRSIRLDPAEVKWRSQRSQRPWLAGTVIEH | not soluble |
| PMILGYWNVRGLTHPIRLLLEYTDSSYEEKRYAMGDAPDYDRSQWLNEKFKLGLDFPNLPYLIDGSRKITQSNAIMRYLARKHHLCGETEEERIRVDVLENQAMDTRLQLAMVCYSPDFERKKPEYLEGLPEKMKLYSEFLGKQPWFAGNKITYVDFLVYDVLDQHRIFEPKCLDAFPNLKDFVARFEGLKKISDYMKSGRFLSKPIFAKMAFWNPK | soluble |
| PNFSHWGPPRIVEIFREPNVSLGISIVGGQTVIKRLKNGEELKGIFIKQVLEDSPAGKTNALKTGDKILEVSGVDLQNASHSEAVEAIKNAGNPVVFIVQSLSSTPRVIP | soluble |
| PNSPINKLVLNDIGPQIPIHGLRRIAKYAGKAPDFKSLEEAKQHFKASYADFGITNEKQWDIFTKNSVEQRGPNLYVTKMDPAIKKSKSILQIISEFFRHPHKALEGIFYDINLWSIWKQIKCPVIVIHGVNSDILTSEIITQMKKTHALTEVYEVENAGHAPALLDLTVHQRIEDWLATH | not soluble |
| PPFTGDERASIQRACEAGVEKIIVPATEAAHFPRVLALAARFPSLYAALGLHPIVIERHADDDSDKLQQALAQQQNVVAVGEIGLDLYRDDPQFARQERFLDAQLQLAKRYDLPVILHSRRTHDKLAMHLKRQDLPRTGVVHGFAGSLQQAERFVRLGYKIGVGGTITYPRASKTRDVMARLPLDALLLETDAPDMPLKGFQGQPNRPEQAARVFDALCELRPE | not soluble |
| PQFSLWKRPVVTAYIEGQPVEVLLDTGADDSIVAGIELGNNYSPKIVGGIGGFINTLEYKNVEIEVLNKKVRATIMTGDTPINIFGRNILTALGMSLNL | soluble |
| PRLEFEKPVIELQTKIAELKKFTQDSDMDLSAEIERLEDRLAKLQDDIYKNLKPWDRVQIARLADRPTTLDYIEHLFTDFFECHGDRAYGDDEAIVGGIAKFHGLPVTVIGHQRGKDTKENLVRNFGMPHPEGYRKALRLMKQADKFNR | not soluble |
| PSTLELLKDVHLGLPVPCHDPARLALLSGHYLYYHYGCDGLDDRGWGCGYRTLQTLCSWPGGQSSGVPGLPALQGALEAMGDKPPGFRGSRNWIGCVEASLCLEHFGGPQGRLCHLPRGVGLRGEEERLYSHFTTGGGPVMVGGDADAQSKALLGICEGPGSEVYVLILDPHYWGTPKNRCELQAAGWVGWQKVKSVFDSNSFYNLCFTRLEHHHHHH | soluble |
| PTKLETFPLDVLVNTAAEDLPRGVDPSRKENHLSDEDFKAVFGMTRSAFANLPLWKQQNLKKEKGLF | soluble |
| PTPKTELVQKFRVQYLGMLPVDRPVGMDTLNSAIENLMTSSSKEDWPSVNMNVADATVTVISEKNEEEVLVECRVRFLSFMGVGKDVHTFAFIMDTGNQRFECHVFWCEPNAANVSEAVQAACSGPSSGIEGRGSSGSSGSSGSSGDAAVTPEERHLSKMQQNGYENPTYKFFEQMQN | soluble |
| PYARFQSAMFDKDTLIVSYDAERGEPRGARKKTVNKEEAGLGDCINCAMCVQVCPVGIDIRNGLQYQCIGCAACIDACDEIMDKMGYPRGL | not soluble |
| QAAELEITVTNATKGIYFTPLIVAAHDSDLHMFKVGESATAELEAMAEGGDISGLSTVIGNAGGAVVENPAGGILNPGAATTFTLDSGDHG | not soluble |
| QAKQTMQTLSTLNELGSKVEEVRNFFNFELPYRVKHVDQVSLKLQLVYAVRLQLESEVSDANGPDVTQLLYSTDRFLESARAFIGSDGELVSLAEQLHTSRGAENNSQQIENMYYRLGALVLESIFSDSNTNTDTYRELDLLFIESDSLSTGERSAFQRRLAQTSSVLAANAQGSYLANQLLKPDFPNQLVSMKATLEQK | not soluble |
| QDSLPDTKASGPAHSKEVPALTAVETGATNPLAPSDTVQTRHVVQRRSRSESTIESFFARGACVAIIEVDNEQPTTRAQKLFAMWRITYKDTVQLRRKLEFFTYSRFDMEFTFVVTANFTNANNGHALNQVYQIMYIPPGAPTPKSWDDYTWQTSSNPSIFYTYGAAPARISVPYVGLANAYSHFYDGFAKVPLKTDANDQIGDSLYSAMTVDDFGVLAVRVVNDHNPTKVTSKVRIYMKPKHVRVWCPRPPRAVPYYGPGVDYRNNLDPLSEKGLTTY | soluble |
| QGQFFREIENLKEYFNASSPDVAKGGPLFSEILKNWKDESDKKIIQSQIVSFYFKLFENLKDNQVIQRSMDIIKQDMFQKFLNGSSEKLEDFKKLIQIPVDDLQIQRKAINELIKVMNDLS | soluble |
| QILSPNYKARADSNAFYQKPVYPSRGVIYDRNGELLVYNEPAYDLVAVTKEVGEFDTLALCQTLNVEPEYVRKRFQDIRDRRINPGYSPYVPQLLLAQLNPREAGRFQEQLFKFPGFSIRPRAIRQYKYHGAAHVLGYLSEANMRDLERDSSLIAGDYVGRSGIERQYEKTLRGEKGIEVLLRDARGRIKGHYSDGKYDSPAIPGRDLTLSIDSKLQTLGEQLMQGKRGAIVMIEPETGEVLCLVSSPSYDPSLLAGKDRGKNHLEMEHDRNKPLYARAIQATYPPGSTFKPAQGAIFLQEGVIRPTDAFSCYHGFPPLNNRPACHSHGSP | not soluble |
| QLPSYRFNPNNHQSEQTLCVVCMCDFESRQLLRVLPCNHEFHAKCVDKWLKANRTCPICRAD | soluble |
| QNFLNDQFVIDSIVSAINPQKGQAMVEIGPGLAALTEPVGERLDQLTVIELDRDLAARLQTHPFLGPKLTIYQQDAMTFNFGELAEKMGQPLRVFGNLPYNISTPLMFHLFSYTDAIADMHFMLQKEVVNRLVAGPNSKAYGRLSVMAQYYCNVIPVLEVPPSAFTPPPKVDSAVVRLVPHATMPHPVKDVRVLSRITTEAFNQRRKTIRNSLGNLFSVEVLTGMGIDPAMRAENISVAQYCQMANYLAENA | soluble |
| QQRFLNIATDGRLSPKQKSNFLALEAEACIPYMPISEALREAMSDGVICDMFEGHAPFKPRYVLPDYAKFLSQGSEYLELSPAEDFDDALN | not soluble |
| QQRQRRKRKELTNLIRRFRNGAESLPDAVVVFRAEGNIVWCNRLAQHLLGFHWPEDSGQPISNLIRTPDFIKYLNKKDFSEPLEMRSPLNVERMLELRIVPYTEGEHLMVVRDVS | soluble |
| QTSIPTIFVGGDYARAFSTDGFVHRLTAAHLMTKGLVVHVSHAGHVTVQQFGPLKNNPTIQVIFADNHHAKRQARQFATVMQGLAKRYHVTRYNAVGHSSGGNIIFDYLTAQVPQRAQINKFVTIGSTYPGLTTQQLNRLPRSLPILNIAGHVWHTSGDGGVNLQAVLKFSHQLLAAGWSPKTQIIHGSPLTASHSMLHINPQVDLLIIQFLYGN | not soluble |
| QVQLQESGGGLVQPGGSLRLSCAASGFAFSGYAMSWVRQAPGKGLEWVSGINRDGSTSYTAPVKGRFTISRDNAKNILYLQMNSLRPEDTAVYYCAKWLGGRDWYDRGQGTQVTVS | soluble |
| QVQLVQSGAEVKKPGSSVKVSCKASGYTFSSNVISWVRQAPGQGLEWMGGVIPIVDIANYAQRFKGRVTITADESTSTTYMELSSLRSEDTAVYYCASTLGLVLDAMDYWGQGTLVTVSSASTKGPSVFPLAPCSRSTSESTAALGCLVKDYFPEPVTVSWNSGALTSGVHTFPAVLQSSGLYSLSSVVTVPSSSLGTKTYTCNVDHKPSNTKVDKRVESKYGPP | soluble |
